Common to all, as to format: cell-based
Experiment [1] deals with CRISPR target m7GEP1 (maize HMG13 gene) in corn A188 immature embryos. Nature of the experiment: SDN-1 efficiency after co-delivery of TSA with editing plasmids, target m7GEP1, Taqman ddPCR (Example 18). The following applies: 15 ng TSA co-bombarded, 48 hours after bombardment, 6 repeats. As for the experimental part:
(§1) The amounts of TSA used for a bombardment with 100 μg of gold particles (approximately, 4.0-5.0×10^7 gold particles size of 0.6 micron) is 15 ng. Specifically, the plasmid DNA and TSA were co-coated onto gold particles for bombardment as follows. For 10 shots, 100 microlite (μl) of 10 mg/ml 0.6 μm gold particle in 50% (v/v) glycerol particle stock solution (1.0 mg of the gold particles in total for 10 shots, and 100 μg per shot) was pipetted into a clear low-retention microcentrifuge tube. Sonicate for 15 seconds to suspend the gold particles. While vortex at a low speed, add the following in order: • 1.0 μg of pGEP1054 (FIG. 15), 1.5 μg of pGEP842 (FIG. 2) or pGEP1067 (FIG. 32) • 100 μl of 2.5 M CaCl2 (pre-cold on ice) • 40 μl of 0.1 M cold spermidine Close the lid and vortex the tube for 5 minutes at room temperature and spin down the DNA-coated gold particles. After washing in 1000 μl of 100% ethanol (pre-cold at −20° C.) for two times, the pellet was resuspended in 120 μl of 100% ethanol. Finally, 150 ng of TSA was added into the resuspended gold particle solution carefully. While vertexing at a low speed, pipet 10 μl of TSA co-coated gold particles with a wide open 20 μl tip from the tube onto the center of the macrocarrier evenly. Since the particles tend to form clumps at this point, get the gold particles onto the macrocarriers as soon as possible. […]
In general terms: Real-time PCR tracks product formation cycle by cycle.

Experiment [2] deals with CRISPR target m7GEP22 (maize HMG13 gene) in corn A188 immature embryos. Nature of the experiment: SDN-1 efficiency after co-delivery of TSA with editing plasmids, target m7GEP22, Taqman ddPCR (Example 18). To be noted: 15 ng TSA co-bombarded, 48 hours after bombardment, 6 repeats. As for the experimental part: as §1
For experiment [3], the system named is maize HMG13 gene in maize A188 immature embryos. Nature of the experiment: Genome editing SDN-1 in regenerated T0 plants of maize A188 (Example 5). To be noted: for Total SDN-1: T0 events; for Bi-SDN-1: T0 events with bi-allelic SDN-1; for Mon-SDN-1: T0 events with mono-allelic SDN-1; for % SDN-1/IE: per immature embryo initially used; for % SDN-1/Event: per regenerated T0 event; for Total Events: regenerated T0 events, co-bombarded with pGEP837 and pGEP842. As to the method:
Specifically, construct pGEP837 (SEQ ID NO: 52, FIG. 1) and the crRNA construct pGEP842 (SEQ ID NO: 53, FIG. 2) were co-bombarded with the different boosters as indicated into maize A188 immature embryos by particle bombardment. For each bombardment (shot), 100 ng of plasmid pGEP837 were cocoated with 150 ng of plasmid pGEP842 and 100 ng each of different boost constructs onto 100 μg of 0.4 μm gold particles using calcium-spermidine method. Three bombardments (shots) per sample plate were performed.
(§2) After bombardment the embryos were remained on the osmotic medium (N60SM) for another 16-20 hours. The embryos were transferred from the osmotic medium onto embryogenic callus induction medium (e.g. N6_5Ag) in a petri dish plate (100×25 mm) with scutellum-face-up, at a density of 12-15 embryos per plate. The embryos were incubated at 27° C. in dark for the embryogenic callus induction. After embryogenic callus induction in N6_5Ag medium for 10-14 days the induced calluses were transferred onto embryo maturation medium MRM1 in petro dish (100×25 mm), and cultured at 27° C. in dark for 10 days, and then at 25° C., weak light (20-50 μmol m^−2 s^−1) for 2-4 days. The mature somatic embryos were then transferred onto MSO medium (see below) in phytotray for plant outgrowth and further development for 5-7 days. A 5-10 mm leaf tip from each of the leaves of a T0 plant is collected for DNA extraction. The targeted genome editing SDN-1 in the regenerated T0 plants are screened by TaqMan real-time PCR (qPCR), and further conformed by Sanger sequencing trace decomposition analysis.

Experiment [4] relates to maize HMG13 gene in immature embryos of maize recalcitrant elite 4V-40290. The experiment can be described thus: Genome editing SDN-1 in T0 plants of elite 4V-40290 (Example 13). To be noted: for Bi-SDN-1 / Mon-SDN-1 / Total SDN-1: T0 events; for % SDN-1/IE: per immature embryo initially used; for % SDN-1/Event: per regenerated T0 event; for Total Event: regenerated T0 events, co-bombarded with pGEP837 and pGEP842. As to the method:
as §2
(§3) The workflow was as described in Example 6. For immature embryo isolation, osmotic treatment, and bombardment, please see the description in Example 1. Specifically, genome editing constructs pGEP837 (SEQ ID NO: 52, FIG. 1) and pGEP842 (SEQ ID NO: 53, FIG. 2) were co-bombarded with the different boosters as indicated into the immature embryos of elite 4V-40290 by particle bombardment. For each bombardment (shot), 100 ng of plasmid pGEP837 and 150 ng of plasmid pGEP842 were cocoated with 100 ng each of different boost constructs onto 100 μg of 0.4 μm gold particles using calcium-spermidine method. Three bombardments (shots) per sample plate were performed. The bombarded embryos were transformed onto the embryogenic callus induction medium 16-20 hours after bombardment.
(§4) For plant regeneration, and genome editing SDN-1 screen and conformation in regenerated T0 plants please see Example 5 and Example 9.

For experiment [5], the system named is maize HMG13 gene in immature embryos of maize recalcitrant elite 2V-20195. The experiment can be described thus: Genome editing SDN-1 in T0 plants of elite 2V-20195 (Example 12). As for the experimental part:
as §2
as §3, with “embryos of maize elite 2V-20195” for “embryos of elite 4V-40290”, “maize elite 2V-20195 by particle” for “of elite 4V-40290 by particle”, “pGEP842 were co-coated with 100” for “pGEP842 were cocoated with 100”
as §4

On to `CC(/C=C/C(=O)NO)=C\[C@@H](C)C(=O)c1ccc(N(C)C)cc1` [TSA, trichostatin A], for which the “increase in the SDN-1 efficiency compared to the control without TSA (CK)” value in experiment [1] was 61.5%; in experiment [2] it was 354.5%.

B1: RBP7: artificial regeneration booster protein, SEQ ID NO: 38 (CDS SEQ ID NO: 26), construct pABM-BdEF1_RBP7 (protein)
chain: MVSKGEEVIKEFSGSTRWNPTAEQLSLLKELYYRNGIRTPSADQIRQISARLSRYGKIEGKNVFYWFQNHKARERQKKRLSTVGCDPALIEMGNVASLEFGTESALESLSSGPSSELREAPTRKFYEKKTVGENSTIINPVEQNCTLSCGTSQEFQYAVDSRRVMKAMEEKQATDDEPDGNKWTESNRHVKTLPLFPLHNNVETLPLFPEDSGSLDLELELGFASGGSAGSVDTLPLFPREAAGSGEFATAAATSGSQRASALDLCLSLGNESCGLHDN
In the case of B1, in experiment [3], the “Total SDN-1” value is given as 6, the Bi-SDN-1 was determined as 5, the Mon-SDN-1 is reported as 1 and the “% SDN-1/IE” value came to 19.4%. Also, in experiment [3], the “% SDN-1/Event” value is on record as 12.0% and the “Total Events” value amounted to 50.

B2: RBP2: artificial regeneration booster protein, SEQ ID NO: 33 (CDS SEQ ID NO: 21), expressed from construct pABM-BdEF1_RBP2 (protein)
chain: MESGSGTAAGSGYVYRQSGSTRWNPTAEQLSLLKELYYRNGIRTPSADQIRQISARLSRYGKIEGKNVFYWFQNHKARERQKKRLSTVGCDPALIEMGNVASLEFGTESALESLSSGPSSELREAPTRKFYEKKTVGENSTIINPVEQNCTLSCGTSQEFQYAVDSRRVMKAMEEKQATDDEPDGNKWTESNRHVKTLPLFPLHNNEDQTLIKSDKEIYCLGSCEKKMDLSPLGHSGSQRASALDLCLSLGNESCGLHDN
Take B2: in experiment [4], the Bi-SDN-1 came out at 2, the Mon-SDN-1 was 0, the “Total SDN-1” value turned out to be 2 and the “% SDN-1/IE” value is given as 9.1%. Further, in experiment [4], the “% SDN-1/Event” value is on record as 13.3% and the “Total Event” value is 15. In experiment [5] (T0 events), the Bi-SDN-1 amounted to 1, the Mon-SDN-1 is recorded as 0 and the “Total SDN-1” value is 1. Further, the “% SDN-1/IE” value in experiment [5] (per immature embryo initially used) amounted to 2.1%. In addition, in experiment [5] (per regenerated T0 event), the “% SDN-1/Event” value is 6.3%. Further, in experiment [5] (regenerated T0 events, co-bombarded with pGEP837 and pGEP842), the “Total Event” value turned out to be 16. For the same molecule, in experiment [3], the “Total SDN-1” value is 34, the Bi-SDN-1 stood at 20, the Mon-SDN-1 is listed as 14 and the “% SDN-1/IE” value is 22.7%. In experiment [3], the “% SDN-1/Event” value came out at 14.3% and the “Total Events” value is on record as 237.

B3: RBP5: artificial regeneration booster protein, SEQ ID NO: 36 (CDS SEQ ID NO: 24), construct pABM-BdEF1_RBP5 (protein)
chain: MVSKGEEVIKEFSGSTRWNPTAEQLSLLKELYYRNGIRTPSADQIRQISARLSRYGKIEGKNVFYWFQNHKARERQKKRLSTVGCGSAGSAAGSGEFRHVKTLPLFPLHNNVETLPLFPEDSGSLDLELELGFASATAAATSGSQRASALDLCLSLGNESCGLHDN
Regarding B3, in experiment [3], the “Total SDN-1” value is on record as 11, the Bi-SDN-1 turned out to be 8, the Mon-SDN-1 is listed as 3 and the “% SDN-1/IE” value came to 23.4%. In experiment [3], the “% SDN-1/Event” value is 4.9% and the “Total Events” value is on record as 224.

B4: RBP8: artificial regeneration booster protein, SEQ ID NO: 39 (CDS SEQ ID NO: 27), construct pABM-BdEF1_RBP8 (protein)
chain: MVSKGEEVIKEFSGSTRWNPTAEQVKVLREIYYRAGLRTPSADQIRQISSQLKRYGKVEGKNVFYWFQNHKARERQKKRLSTVGSAGSAAGSGEFRHVKTLPLFPLHNNEDSGSGLDLDLNLELRLSATAAATSGSQRASALDLDLELRLGFALGNESCGLHDN
With B4, in experiment [4], the Bi-SDN-1 turned out to be 1, the Mon-SDN-1 was 6, the “Total SDN-1” value is 7 and the “% SDN-1/IE” value was determined as 28.0%. In experiment [4], the “% SDN-1/Event” value turned out to be 20.6% and the “Total Event” value is 34. In experiment [3], the “Total SDN-1” value came to 9, the Bi-SDN-1 came out at 5, the Mon-SDN-1 was determined as 4 and the “% SDN-1/IE” value amounted to 39.1%. In experiment [3], the “% SDN-1/Event” value is given as 13.4% and the “Total Events” value was 67.

For the origin of these results see patent publication US12637685B2, “Method for rapid genome modification in recalcitrant plants” (KWS SAAT SE & Co. KGaA, priority 2020, dated 2026).
